Results: patent publication US20160009800A1 (XOMA US, published 2016)

What was measured:
human insulin receptor [1] = target: T1, human insulin receptor (human, UniProt P06213 28-1382); assay: FACS, serum-starved CHO-K1 cells expressing human INSR, no insulin [cont'd]
T1 construct: whole, on cells; Uncomplexed receptor on serum-starved cells (CHOK1 transfectants or IM-9); also called hINSR; INSR
Method: (§1) Twenty five microliter aliquots of cells were plated into 96 well plates, mixed with 25 ul of antibody or PPE and incubated on ice for 1 h.
(§2) The cells were then washed once with FACS buffer and the binding of the antibody was detected by the addition of 25 ul of an appropriate fluorochrome-conjugated secondary antibody. […] After a final 15 min incubation on ice the cells were washed and the pellets resuspended in FACS buffer. The cells were analyzed on a FACSCAN™ (Becton-Dickinson, Milipitas, Calif.) and the data analyzed in both FLOWJO™ (Treestar, Ashland, Oreg.) and Microsoft Excel™.

[2] = target: T2, human insulin receptor complexed with human insulin (human, UniProt P06213 28-1382; P01308 25-54; P01308 90-110); assay: FACS, serum-starved CHO-K1 cells expressing human INSR, with insulin [cont'd]
T2 construct: whole, on cells;mature; also called hINSR-hINS complex; INS/INSR complex
Method: as §1, §2

mouse insulin receptor [3] = target: T3, mouse insulin receptor (mouse, UniProt P15208 28-1372); assay: FACS, serum-starved CHO-K1 cells expressing mouse INSR, no insulin [cont'd]
T3 construct: whole, on cells; also called muINSR; mINSR
Method: as §1, §2

[4] = target: T4, mouse insulin receptor complexed with human insulin (mouse; human, UniProt P15208 28-1372; P01308 25-54; P01308 90-110); assay: FACS, CHO-K1 mouse INSR cells, signal with insulin divided by signal without insulin [cont'd]
T4 construct: whole, on cells;mature; also called muINSR/hINS complex
Method: as §1, §2

[5] = target: T2, human insulin receptor complexed with …; assay: FACS, CHO-K1 human INSR cells, signal with insulin divided by signal without insulin [cont'd]
Method: as §1, §2

[6] = target: T4, mouse insulin receptor complexed with …; assay: FACS, serum-starved CHO-K1 cells expressing mouse INSR, with insulin [cont'd]
Method: as §1, §2

human insulin receptor [7] = target: T1, human insulin receptor; assay: FACS, serum-starved CHO-K1 cells expressing human INSR, no insulin
Method: as §1, §2

mouse insulin receptor [8] = target: T3, mouse insulin receptor; assay: FACS, serum-starved CHO-K1 cells expressing mouse INSR, no insulin
[9] = target: T4, mouse insulin receptor complexed with …; assay: FACS, serum-starved CHO-K1 cells expressing mouse INSR, with insulin
[10] = target: T4, mouse insulin receptor complexed with …; assay: FACS, CHO-K1 mouse INSR cells, signal with insulin divided by signal without insulin
Method: as §1, §2

[11] = target: T2, human insulin receptor complexed with …; assay: FACS, serum-starved CHO-K1 cells expressing human INSR, with insulin
Method: as §1, §2

[12] = target: T2, human insulin receptor complexed with …; assay: FACS, CHO-K1 human INSR cells, signal with insulin divided by signal without insulin

Binder	FACS area under log transformed data MFI (human insulin receptor [1])	FACS area under log transformed data MFI [2]	FACS area under log transformed data MFI (mouse insulin receptor [3])	FACS area under log transformed data MFI ratio (+insulin/-insulin) [4]	FACS area under log transformed data MFI ratio (+insulin/-insulin) [5]	FACS area under log transformed data MFI [6]	FACS area under log transformed data MFI (human insulin receptor [7])	FACS area under log transformed data MFI (mouse insulin receptor [8])	FACS area under log transformed data MFI [9]	FACS area under log transformed data MFI ratio (+insulin/-insulin) [10]	FACS area under log transformed data MFI [11]	FACS area under log transformed data MFI ratio (+insulin/-insulin) [12]
Ab075 (antibody, IgG2, V domains shown, also called XPA.015.232) VH: EVQLVETGGGVVQPGRSLRLSCAASGFSFSSYDMYWVRQAPGKGLEWVAVISYDGNDKQYADSVKGRFTISRDNSKRTLYLQMDSLRTEDTATYYCTREGNGREIDYWGPGTLVTVSS VL: QSVLTQPPSVSAAPGQKVTISCSGSSSNIGNNYVTWYQHVPGTAPKLLIFDNDKRPSGIPDRFSGSKSGTSATLAITGLQTGDEADYYCGTWDSSLNPLFGGGTQLTVL	692	353	425	1.05	0.51	446						
Ab058 (antibody, IgG2, V domains shown, also called XPA.015.202) VH: QLQLQQWGAGLLKPSETLSLTCAVYSGSFSGYYYSWIRQSPGRGLEWIGDISHTGSTDYNPSLKTRVTISVDTSKNQFSLNLNSVTAADTAVYYCARDAPKGGSGLYLFDYWGQGTLVTVSS VL: QSVLTQPPSVSGAPGQRVTISCTGSRSNIGADHDVHWYQQIPGRAPKLLIYGNSNRPSGVPDRFSGSRSGTSASLAITGLQAEDEADYYCQSYDNSLSGSVFGGGTKLTVL							1410	812	388	0.48	370	0.26
Ab068 (antibody, IgG2, V domains shown, also called XPA.015.217) VH: EVQLVQSGAEVKQPGSSVKVSCKASGGSFNSYTFSWVRQAPGQGLEWMGWISAYNGGTNYFANYALKFQGRVTMTTDTSTGTAYMELRSLRSDDTAVYYCARVRDSWSHEDYSYYYYMDVWGKGTTVTVSS VL: DVVMTQTPLSLSVTPGQPASISCKASQSLLYTNGDTYVSWYVQKPGQAPQLLFSDVSSRFFGVPDRFSASGSGTDFTLKISRVEAEDVGVYYCVQAMYLPLVFGQGTKVEIK							1420	803	445	0.55	1030	0.72
Ab067 (antibody, V domains shown, also called XPA.015.216) VH: EVQLVQSGAEVKKPGSSVKVSCKASGGTFSSYAISWVRQAPGQGLEWMGGIIPIFGTANYAQKFQGRVTITADESTSTAYMELSSLRSEDTAVYYCARASGDYDFWSGYYGAEYFQHWGQGTLVTVSS VL: not shown							1540	1280	786	0.61	1060	0.69
Ab074 (antibody, IgG2, V domains shown, also called XPA.015.230) VH: EVQLVQSGAEVKKPGESLKISCKGSGYSFTSYWIGWVRQMPGKGLEWMGIIYPGDSDTRYSPSFQGQVTISADKSISTAYLQWSSLKASDTAMYYCARWDAGYSPWGQGTLVTVSS VL: SSELTQDPAVSVALGQTVRITCQGDSLRSYYASWYQQKPGQAPVLVIYGKNNRPSGIPDRFSGSSSGNTASLTITGAQAEDEADYYCSSRDSSGDQWVFGGGTKLTVL	596	260	932	0.54	0.44	503						
Ab071 (antibody, IgG2, V domains shown, also called XPA.015.227) VH: EVQLVQSGAEVKKPGESLKISCKGSGYSFTSYWIGWVRQMPGKGLEWMGIIYPGDSDTRYSPSFQGQVTISADKSISTAYLQWSSLKASDTAMYYCARWDAGYSPWGQGTLVTVSS VL: SSELTQDPAVSVALGQTVRITCQGDSLRSYYASWYQQKPGQAPVLVFYGKNNRPSGIPGRFSGSKSGNTASLTITGAQAEDEADYYCNSRDSSGNHWVFGGGTKLTVL	490		818	0.63		518						
Ab055 (antibody, IgG2, V domains shown, also called XPA.015.198) VH: QVQLVQSGAEVKKPGSSVKVSCKASGGTFSSYAISWVRQAPGQGLEWMGGIIPIFGTANYAQKFQGRVTITADESTSTAYMELSSLRSEDTAVYYCARGQGWLRFYGMDVWGQGTTVTVSS VL: SYELTQLPSVSVSPGQTARITCSGDALPNKYAYWYQQKSGQAPVLVIYEDTRRPSEIPERFSASSSGTMATLTISGAQVEDEAEYYCYSTDSSGNERVFGGGTKLTVL							1190	1300	1050	0.81	759	0.64
Ab051 (antibody, IgG2, V domains shown, also called XPA.015.194) VH: QVQLVQSGAEVKKPGSSVKVSCKASGGTFSSYAISWVRQAPGQGLEWMGGIIPIFGTANYAQKFQGRVTITADESTSTAYMELSSLRSEDTAVYYCAGKLYSRDYWYFDLWGRGTLVTVSS VL: SSELTQDPAVSVALGQTVRITCQGNSLRSFYATWYQQKPGQAPVLVIYGKNIRPSGIPDRFSGSNSGDTASLTITGTQAEDEADYYCNSRDNNRNHLLFAGGTKVTVL							554	663	470	0.71	378	0.68

The next lines start with the values.

FACS area under log transformed data MFI (human insulin receptor [1])	FACS area under log transformed data MFI [2]	FACS area under log transformed data MFI (mouse insulin receptor [3])	FACS area under log transformed data MFI ratio (+insulin/-insulin) [4]	FACS area under log transformed data MFI ratio (+insulin/-insulin) [5]	FACS area under log transformed data MFI [6]	FACS area under log transformed data MFI (human insulin receptor [7])	FACS area under log transformed data MFI (mouse insulin receptor [8])	FACS area under log transformed data MFI [9]	FACS area under log transformed data MFI ratio (+insulin/-insulin) [10]	FACS area under log transformed data MFI [11]	FACS area under log transformed data MFI ratio (+insulin/-insulin) [12]	Binder
729	341	307	1.05	0.47	321							Ab073 (antibody, IgG2, V domains shown, also called XPA.015.229) VH: QVQLQESGPGLVKPSGTLSLTCAVSGGSISSSNWWSWVRQPPGKGLEWIGEIYHSGSTNYNPSLKSRVTISVDKSKNQFSLKLSSVTAADTAVYYCARVGAAAAWFDPWGQGTLVTVSS VL: QSVLTQPPSVSAAAGQKVTISCSGSSSNIGNNYVTWYQHVPGTAPKLLIFDNDKRPSGIPDRFSGSKSGTSATLAITGLQTGDEADYYCGTWDSSLNPLFGGSTQLTVL
226		508	0.53		267							Ab072 (antibody, IgG2, V domains shown, also called XPA.015.228) VH: QMQLVQSGAEVKKPGESLKISCKGSGYSFTGYWIGWVRQMPGKGLEWMGIIYPGDSDTRYSPSFQGQVTISADKSISTAYLQWSSLKVSDTAMYYCGRISTPYAFDIWGQGTMVTVSS VL: SYVLTQPPSASGTPGQRVTISCSGSNSNIGSNFVTWYQQLPGAAPKLLIYTNSQRPSGVPDRFSGSRSGTSASLAISGLQSEDEADYFCAAWDDSLNGPVFGGGTQLTVL
399		257	1.04		267							Ab082 (antibody, IgG2, V domains shown, also called XPA.015.248) VH: QMQLVQSGAEVKKPGESLKISCKGSGYSFTSYWIGWVRQMPGKGLEWMGIIYPGDSDTRYSPSFQGQVTISADKSISTAYLQWSSLKASDTAMYYCARWGPDAFDIWGQGTMVTVSS VL: EIVLTQSPDFQSVTPKETVTISCRASQNIGVSLHWYQQKPDQSPKVLIKYASQSLSGVPSRFSGTGSGTDFTLTIKSLEAEDAATYYCLQTSSLPWTFGQGTKVEIK
552	543	268	1.46	0.98	391							Ab076 (antibody, V domains shown, also called XPA.015.241) VH: EVQLVESGGGVVQPGGSLRLSCAASGFTFDDYAMHWVRQAPGKGLEWVSLISWDGGSTYYADSVKGRFTISRDNSKNSLYLQMNSLRAEDTALYYCAKARGVVIIDYWGQGTLVTVSS VL: EIVMTQSPATLSVSPGERATLSCRASQSISTNLAWYQQKPGQTPRLLIYGASTRATGIPARFSGSGSGTEFTLTISSLQSEDFAVYYCQQYNSEISFGQGTRLEIK
